Assay results: patent publication US20230381281A1, “PHARMACEUTICAL COMPOSITION COMPRISING GLUCAGON/GLP-1/GIP TRIPLE AGONIST OR LONG-ACTING CONJUGATE THEREOF FOR PREVENTING OR TREATING LUPUS-RELATED DISEASES” (HANMI PHARM. CO., LTD., priority 2020, published 2023)
Bridge positions count the residues as written; N and C are the ends. Square brackets hold non-standard residues; d marks the D form. Ends that are not written are not given here. Aib = CC(C)(N)C(=O)O

T1: human GIP receptor (Homo sapiens, UniProt P48546)
T1 construct: expressed in transfected cells; host or cells: Chinese hamster ovary (CHO)
T1 sequence (P48546 22-466): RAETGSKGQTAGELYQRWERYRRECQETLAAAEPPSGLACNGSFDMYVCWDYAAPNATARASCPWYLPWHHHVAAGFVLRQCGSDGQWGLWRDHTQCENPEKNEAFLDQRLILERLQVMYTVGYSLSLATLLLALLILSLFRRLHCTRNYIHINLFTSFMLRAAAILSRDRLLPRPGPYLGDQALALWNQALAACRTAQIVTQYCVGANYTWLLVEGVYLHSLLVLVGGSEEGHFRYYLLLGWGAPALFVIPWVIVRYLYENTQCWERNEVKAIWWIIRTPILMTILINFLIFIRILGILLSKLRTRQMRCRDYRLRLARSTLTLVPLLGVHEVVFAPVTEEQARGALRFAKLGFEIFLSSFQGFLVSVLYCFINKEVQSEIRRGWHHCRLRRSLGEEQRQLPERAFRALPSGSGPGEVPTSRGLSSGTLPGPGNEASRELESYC

T2: human GIP receptor (human, UniProt P48546 22-466)
T2 sequence (looked up): T1 sequence (P48546 22-466)


What was measured:
human GIP receptor [1] = target: T1, human GIP receptor; assay: In vitro cAMP activity in human GIP receptor-expressing CHO cells (LANCE cAMP kit); type: cell-based; details: long-acting conjugates; relative titer from cAMP EC50 compared to human GIP
Description: (§1) In order to measure the activity of the triple agonists and long-acting conjugates thereof prepared according to Examples 1 and 2, the in-vitro cell activity was measured using cell lines transformed with GLP-1 receptor, glucagon (GCG) receptor, and GIP receptor, respectively.
(§2) The cell lines were transformed to express human GLP-1 receptor, human GCG receptor and human GIP receptor genes in Chinese hamster ovary (CHO), respectively, and are suitable for measuring the activities of GLP-1, GCG, and GIP. Therefore, the activity for each part was measured using each transformed cell line.
To measure the GIP activity of the triple agonists and long-acting conjugates thereof prepared according to Examples 1 and 2, human GIP was diluted from 50 nM to […] by 4-fold serial dilution, and the triple agonists and long-acting conjugates thereof prepared according to Examples 1 and 2 were diluted from 400 nM to 0.00038 nM by 4-fold serial dilution. The culture medium was removed from the cultured human GIP receptor-expressing CHO cells, 5 μl of each of the serially diluted materials was added to the cells, and then 5 μl of buffer containing cAMP antibody was added to the cells, followed by 15 minutes of incubation at room temperature. Then, cells were lysed by adding 10 μl of detection mix containing cell lysis buffer, and reacted at room temperature for 90 minutes. The cell lysate after the reaction had been completed, was applied to the LANCE cAMP kit (PerkinElmer, USA) to calculate the EC50 value through the accumulated cAMP, and then compared with each other.

human GLP-1 receptor [2] = target: T3, human GLP-1 receptor (Homo sapiens, UniProt P43220); assay: In vitro cAMP activity in human GLP-1 receptor-expressing CHO cells (LANCE cAMP kit); type: cell-based; details: long-acting conjugates; relative titer from cAMP EC50 compared to human GLP-1
T3 construct: expressed in transfected cells; host or cells: Chinese hamster ovary (CHO)
Description: as §1, §2
To measure the GLP-1 activity of the triple agonists and long-acting conjugates prepared according to Examples 1 and 2, human GLP-1 was diluted from 50 nM to […] by 4-fold serial dilution, and the triple agonists and long-acting conjugates thereof prepared according to Examples 1 and 2 were diluted from 400 nM to 0.00038 nM by 4-fold serial dilution. The culture medium was removed from the cultured human GLP-1 receptor-expressing CHO cells, 5 μl of each of the serially diluted materials was added to the cells, and then 5 μl of buffer containing cAMP antibody was added to the cells, followed by 15 minutes of incubation at room temperature. Then, cells were lysed by adding 10 μl of detection mix containing cell lysis buffer, and reacted at room temperature for 90 minutes. The cell lysate after the reaction had been completed, was applied to the LANCE cAMP kit (PerkinElmer, USA) to calculate the EC50 value through the accumulated cAMP, and then compared with each other.

human GCG receptor [3] = target: T4, human GCG receptor (Homo sapiens, UniProt P47871); assay: In vitro cAMP activity in human GCG receptor-expressing CHO cells (LANCE cAMP kit); type: cell-based; details: for In vitro activity compared to native peptide (%) vs Glucagon: long-acting conjugates, relative titer from cAMP EC50 compared to human GCG; for activity on the glucagon receptor: statement in words in the description
T4 construct: expressed in transfected cells; host or cells: Chinese hamster ovary (CHO)
Description: as §1, §2
To measure the GCG activity of the triple agonists and long-acting conjugates prepared according to Examples 1 and 2, human GCG was diluted from 50 nM to […] by 4-fold serial dilution, and the triple agonists and long-acting conjugates thereof prepared according to Examples 1 and 2 were diluted from 400 nM to 0.00038 nM by 4-fold serial dilution. The culture medium was removed from the cultured human GCG receptor-expressing CHO cells, 5 μl of each of the serially diluted materials was added to the cells, and then 5 μl of buffer containing cAMP antibody was added to the cells, followed by 15 minutes of incubation at room temperature. Then, cells were lysed by adding 10 μl of detection mix containing cell lysis buffer, and reacted at room temperature for 90 minutes. The cell lysate after the reaction had been completed, was applied to the LANCE cAMP kit (PerkinElmer, USA) to calculate the EC50 value through the accumulated cAMP, and then compared with each other.

human GCG receptor [4] = target: human GCG receptor (human, UniProt P47871 26-477); assay: cell-based or functional assay
human GIP receptor [5] = target: T2, human GIP receptor; assay: cell-based or functional assay
human GLP-1 receptor [6] = target: human GLP-1 receptor (human, UniProt P43220 24-463); assay: cell-based or functional assay

T4 sequence (P47871 26-477): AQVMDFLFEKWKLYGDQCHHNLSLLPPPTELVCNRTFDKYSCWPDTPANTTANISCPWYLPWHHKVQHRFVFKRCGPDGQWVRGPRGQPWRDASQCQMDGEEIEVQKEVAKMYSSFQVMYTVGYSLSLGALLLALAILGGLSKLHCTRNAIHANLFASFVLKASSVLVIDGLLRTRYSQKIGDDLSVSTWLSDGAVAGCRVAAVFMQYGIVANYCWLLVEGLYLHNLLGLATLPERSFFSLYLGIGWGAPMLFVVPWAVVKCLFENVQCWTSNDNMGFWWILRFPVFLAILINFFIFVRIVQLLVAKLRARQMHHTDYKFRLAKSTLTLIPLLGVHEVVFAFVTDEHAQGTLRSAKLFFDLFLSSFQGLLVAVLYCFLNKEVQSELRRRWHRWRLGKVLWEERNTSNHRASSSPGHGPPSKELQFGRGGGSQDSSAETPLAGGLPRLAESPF
T3 sequence (P43220 24-463): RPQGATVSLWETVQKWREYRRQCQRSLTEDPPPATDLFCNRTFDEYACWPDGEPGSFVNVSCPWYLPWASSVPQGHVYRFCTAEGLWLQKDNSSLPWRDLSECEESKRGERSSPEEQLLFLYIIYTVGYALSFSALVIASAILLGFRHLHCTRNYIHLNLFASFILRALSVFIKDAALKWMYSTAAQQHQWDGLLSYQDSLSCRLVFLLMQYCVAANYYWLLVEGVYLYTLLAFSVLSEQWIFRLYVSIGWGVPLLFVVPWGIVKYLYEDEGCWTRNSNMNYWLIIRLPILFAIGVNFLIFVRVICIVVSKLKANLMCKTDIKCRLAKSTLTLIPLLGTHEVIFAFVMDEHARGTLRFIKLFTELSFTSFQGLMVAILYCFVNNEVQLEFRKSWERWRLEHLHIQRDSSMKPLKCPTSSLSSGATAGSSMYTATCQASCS
human GCG receptor (human, UniProt P47871 26-477), sequence (P47871 26-477): as the sequence (P47871 26-477) above

Molecule | In vitro activity compared to native peptide (%) vs GIP (human GIP receptor [1]) [%] | In vitro activity compared to native peptide (%) vs GLP-1 (human GLP-1 receptor [2]) [%] | In vitro activity compared to native peptide (%) vs Glucagon (human GCG receptor [3]) [%] | activity on the glucagon receptor (human GCG receptor [3]) | In vitro activity compared to native peptide (%) vs Glucagon (human GCG receptor [4]) [%] | In vitro activity compared to native peptide (%) vs GIP (human GIP receptor [5]) [%] | In vitro activity compared to native peptide (%) vs GLP-1 (human GLP-1 receptor [6]) [%]
50 (H[Aib]QGTFTSDYSKYLDEKRAKEFVQWLLDHHPSSGQPPPSC; bridge 16-20) [compound 50] | 0.7 | 15.4 | 6.9 | – | – | – | –
77 (Y[Aib]QGTFTSDYSKYLDEKAAKDFVQWLLDHHPSSGQPPPSC; bridge 16-20) [compound 77] | 6.6 | 6.7 | 1.7 | – | – | – | –
70 (Y[Aib]QGTFTSDYSKCLDEKRAKDFVQWLLDHHPSSGQPPPS; bridge 16-20) [compound 70] | – | – | – | very high activity | – | – | –
21 (Y[Aib]QGTFTSDYSKYLDECRAKEFVQWLLDHHPSSGQPPPS; bridge 16-20) [compound 21] | 0.2 | 0.1 | 1.6 | very high activity | – | – | –
66 (Y[Aib]QGTFTSDYSKYLDECRAKDFVQWLLDHHPSSGQPPPS; bridge 16-20) [compound 66] | – | – | – | very high activity | – | – | –
96 (Y[Aib]QGTFTSDYSKYLDEKRAKEFVQWLLDHCPSSGQPPPS; bridge 16-20) [compound 96] | 0.3 | 0.3 | 4.0 | very high activity | – | – | –
97 (Y[Aib]QGTFTSDYSKYLDEKRAKEFVQWLLDCHPSSGQPPPS; bridge 16-20) [compound 97] | – | – | – | very high activity | – | – | –
43 (Y[Aib]QGTFTSDYSKYLDEKRAKEFVQWLLDHHCSSGQPPPS; bridge 16-20) [compound 43] | 0.6 | 2.1 | 13.5 | very high activity | – | – | –
42 (Y[Aib]QGTFTSDYSKYLDEKRAKEFVQWLLDHHPSSGQPPPSC; bridge 16-20) [compound 42] | 1.2 | 3.1 | 23.1 | very high activity | – | – | –
22 (Y[Aib]QGTFTSDYSKCLDEKRAKEFVQWLLDHHPSSGQPPPS; bridge 16-20) [compound 22] | 0.5 | 0.1 | 0.9 | very high activity | – | – | –
H[Aib]QGTFTSDYSIAMDEIHQKDFVNWLLAQKC (bridge 16-20) [Triple agonist of SEQ ID NO: 33] | – | – | – | – | < 0.1 | 10.4 | 24.5
H[Aib]QGTFTSDYSKYLDEKACKDFVQWLLDGGPSSGAPPPS (bridge 16-20) [Triple agonist of SEQ ID NO: 32] | – | – | – | – | 1.7 | 8.8 | 151
